Measured values from US20240279325A1 (Chugai, published 2024).

T1: FcγRIIb extracellular domain with C-terminal His tag (human, UniProt P31994 43-217)
T1 construct: extracellular domain
T1 sequence (looked up): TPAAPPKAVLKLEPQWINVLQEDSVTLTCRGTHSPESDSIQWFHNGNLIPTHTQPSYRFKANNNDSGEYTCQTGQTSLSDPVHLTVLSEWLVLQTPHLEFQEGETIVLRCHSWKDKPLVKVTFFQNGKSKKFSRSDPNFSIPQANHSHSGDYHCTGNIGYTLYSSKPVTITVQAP

T2: FcγRIIa type R (allotype R131) extracellular domain with C-terminal His tag (human, UniProt P12318 34-217)
T2 construct: extracellular domain; also called FcγRIIaR; FcγRIIa R type
T2 sequence (looked up): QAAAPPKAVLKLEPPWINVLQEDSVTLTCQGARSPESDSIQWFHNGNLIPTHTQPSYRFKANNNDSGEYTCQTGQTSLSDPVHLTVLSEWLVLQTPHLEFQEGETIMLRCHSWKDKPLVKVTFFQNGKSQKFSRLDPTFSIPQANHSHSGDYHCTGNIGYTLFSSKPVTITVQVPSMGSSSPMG

B1: IL6R-BP483/IL6R-L (antibody, human IgG1, kappa, name in EU numbering)
heavy: QVQLQESGPGLVKPSETLSLTCAVSGHSISHDHAWSWVRQPPGEGLEWIGFISYSGITNYNPSLQGRVTISRDNSKNTLYLQMNSLRAEDTAVYYCARSLARTTAMDYWGEGTLVTVSSASTKGPSVFPLAPSSKSTSGGTAALGCLVKDYFPEPVTVSWNSGALTSGVHTFPAVLQSSGLYSLSSVVTVPSSSLGTQTYICNVNHKPSNTKVDKKVEPKSCDKTHTCPPCPAPDLLGDDSVFLFPPKPKDTLMISRTPEVTCVVVDLAEEDGEVKFNWYVDGVEVHNAKTKPREEQYNSTYRVVSVLTVLHQDWLNGKEYKCKVSNKALPAPIEKTISKAKGQPREPQVYTLPPSRDELTKNQVSLTCLVKGFYPSDIAVEWESNGQPENNYKTTPPVLDSDGSFFLYSKLTVDKSRWQQGNVFSCSVMHEALHNHYTQESLSLSP
light: not shown
notes: copies: 2 + 2
B2: IL6R-BP117/IL6R-L (antibody, human IgG1, kappa, name in EU numbering)
heavy: QVQLQESGPGLVKPSETLSLTCAVSGHSISHDHAWSWVRQPPGEGLEWIGFISYSGITNYNPSLQGRVTISRDNSKNTLYLQMNSLRAEDTAVYYCARSLARTTAMDYWGEGTLVTVSSASTKGPSVFPLAPSSKSTSGGTAALGCLVKDYFPEPVTVSWNSGALTSGVHTFPAVLQSSGLYSLSSVVTVPSSSLGTQTYICNVNHKPSNTKVDKKVEPKSCDKTHTCPPCPAPELLGGDSVFLFPPKPKDTLMISRTPEVTCVVVDVSHEDPEVKFNWYVDGVEVHNAKTKPREEQYNSTYRVVSVLTVLHQDWLNGKEYKCKVSNDALPAPIEKTISKAKGQPREPQVYTLPPSRDELTKNQVSLTCLVKGFYPSDIAVEWESNGQPENNYKTTPPVLDSDGSFFLYSKLTVDKSRWQQGNVFSCSVMHEALHNHYTQESLSLSP
light: not shown
notes: Alterations introduced into IL6R-B3; also called P238D/K326D; copies: 2 + 2
B3: IL6R-BP120/IL6R-L (antibody, human IgG1, kappa, name in EU numbering)
heavy: QVQLQESGPGLVKPSETLSLTCAVSGHSISHDHAWSWVRQPPGEGLEWIGFISYSGITNYNPSLQGRVTISRDNSKNTLYLQMNSLRAEDTAVYYCARSLARTTAMDYWGEGTLVTVSSASTKGPSVFPLAPSSKSTSGGTAALGCLVKDYFPEPVTVSWNSGALTSGVHTFPAVLQSSGLYSLSSVVTVPSSSLGTQTYICNVNHKPSNTKVDKKVEPKSCDKTHTCPPCPAPELLGGDSVFLFPPKPKDTLMISRTPEVTCVVVDVSHEDPEVKFNWYVDGVEVHNAKTKPREEQYNSTYRVVSVLTVLHQDWLNGKEYKCKVSNEALPAPIEKTISKAKGQPREPQVYTLPPSRDELTKNQVSLTCLVKGFYPSDIAVEWESNGQPENNYKTTPPVLDSDGSFFLYSKLTVDKSRWQQGNVFSCSVMHEALHNHYTQESLSLSP
light: not shown
notes: Alterations introduced into IL6R-B3; also called P238D/K326E; copies: 2 + 2
B4: IL6R-BP118/IL6R-L (antibody, human IgG1, kappa, name in EU numbering)
heavy: QVQLQESGPGLVKPSETLSLTCAVSGHSISHDHAWSWVRQPPGEGLEWIGFISYSGITNYNPSLQGRVTISRDNSKNTLYLQMNSLRAEDTAVYYCARSLARTTAMDYWGEGTLVTVSSASTKGPSVFPLAPSSKSTSGGTAALGCLVKDYFPEPVTVSWNSGALTSGVHTFPAVLQSSGLYSLSSVVTVPSSSLGTQTYICNVNHKPSNTKVDKKVEPKSCDKTHTCPPCPAPELLGGDSVFLFPPKPKDTLMISRTPEVTCVVVDVSHEDPEVKFNWYVDGVEVHNAKTKPREEQYNSTYRVVSVLTVLHQDWLNGKEYKCKVSNSALPAPIEKTISKAKGQPREPQVYTLPPSRDELTKNQVSLTCLVKGFYPSDIAVEWESNGQPENNYKTTPPVLDSDGSFFLYSKLTVDKSRWQQGNVFSCSVMHEALHNHYTQESLSLSP
light: not shown
notes: Alterations introduced into IL6R-B3; also called P238D/K326S; copies: 2 + 2
B5: IL6R-BP121/IL6R-L (antibody, human IgG1, kappa, name in EU numbering)
heavy: QVQLQESGPGLVKPSETLSLTCAVSGHSISHDHAWSWVRQPPGEGLEWIGFISYSGITNYNPSLQGRVTISRDNSKNTLYLQMNSLRAEDTAVYYCARSLARTTAMDYWGEGTLVTVSSASTKGPSVFPLAPSSKSTSGGTAALGCLVKDYFPEPVTVSWNSGALTSGVHTFPAVLQSSGLYSLSSVVTVPSSSLGTQTYICNVNHKPSNTKVDKKVEPKSCDKTHTCPPCPAPELLGGDSVFLFPPKPKDTLMISRTPEVTCVVVDVSHEDPEVKFNWYVDGVEVHNAKTKPREEQYNSTYRVVSVLTVLHQDWLNGKEYKCKVSNQALPAPIEKTISKAKGQPREPQVYTLPPSRDELTKNQVSLTCLVKGFYPSDIAVEWESNGQPENNYKTTPPVLDSDGSFFLYSKLTVDKSRWQQGNVFSCSVMHEALHNHYTQESLSLSP
light: not shown
notes: Alterations introduced into IL6R-B3; also called P238D/K326Q; copies: 2 + 2

target: T1, FcγRIIb extracellular domain with …; experiment: SPR; KD of IL6R-B3/IL6R-L divided by KD of the variant

| Binder | KD(IIb) OF PARENT POLYPEPTIDE/KD(IIb) OF ALTERED POLYPEPTIDE |
| --- | --- |
| B1 | 39.7 |

target: T2, FcγRIIa type R (allotype R131) …; experiment: as above

| Binder | KD(IIaR) OF PARENT POLYPEPTIDE/KD(IIaR) OF ALTERED POLYPEPTIDE |
| --- | --- |
| B1 | 0.8 |

target: T1, FcγRIIb extracellular domain with …; experiment: SPR; KD for FcγRIIaH divided by KD for FcγRIIb

| Binder | KD(IIaH)/KD(IIb) |
| --- | --- |
| B1 | 231 |

target: T3, human FcγRIIIa type V (allotype V158) extracellular domain with C-terminal His tag (human, UniProt P08637 17-208); experiment: SPR (Biacore), antibody captured, FcγR analyte
T3 construct: also called FcγRIIIaV
T3 sequence (P08637 other isoform, or with tags, fused parts or gaps): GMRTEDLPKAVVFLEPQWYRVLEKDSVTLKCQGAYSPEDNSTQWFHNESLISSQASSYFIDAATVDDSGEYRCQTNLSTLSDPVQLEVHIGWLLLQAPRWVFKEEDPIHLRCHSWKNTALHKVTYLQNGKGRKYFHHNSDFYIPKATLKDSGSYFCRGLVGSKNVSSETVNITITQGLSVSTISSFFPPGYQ

| Binder | Kd |
| --- | --- |
| B2 | 67 µM |
| B3 | 79 µM |
| B4 | 56 µM |
| B5 | 52 µM |
